Residue numbers refer to the chain shown, from its start. In names and notes the source's numbering stands.
B1: Rvb1 (enzyme)
chain: MVAISEVKENPGVNSSNSGAVTRTAAHTHIKGLGLDESGVAKRVEGGFVGQIEAREACGVIVDLIKAKKMSGRAILLAGGPSTGKTALALAISQELGPKVPFCPLVGSELYSVEVKKTETLMENFRRAIGLRIKETKEVYEGEVTELTPEDAENPLGGYGKTISHVIVGLKSAKGTKTLRLDPTIYESIQREKVSIGDVIYIEANTGAVKRVGRSDAYATEFDLETEEYVPLPKGEVHKKKEIVQDVTLHDLDVANARPQGGQDVISMMGQLLKPKKTEITEKLRQEVNKVVAKYIDQGVAELIPGVLFIDEVNMLDIEIFTYLNKALESNIAPVVVLASNRGMTTVRGTEDVISPHGVPPDLIDRLLIVRTLPYDKDEIRTIIERRATVERLQVESSALDLLATMGTETSLRYALQLLAPCGILAQTSNRKEIVVNDVNEAKLLFLDAKRSTKILETSANYL
B2: Rvb1-R366A (enzyme)
chain: B1 chain with R366A

Assays:
[1] = target: Rvb2-R350A (S. cerevisiae, UniProt Q12464 1-471, R350A); experiment: SEC
[2] = target: Rvb2 (S. cerevisiae, UniProt Q12464 1-471); experiment: SEC
Chain of Rvb2 (Q12464 whole entry): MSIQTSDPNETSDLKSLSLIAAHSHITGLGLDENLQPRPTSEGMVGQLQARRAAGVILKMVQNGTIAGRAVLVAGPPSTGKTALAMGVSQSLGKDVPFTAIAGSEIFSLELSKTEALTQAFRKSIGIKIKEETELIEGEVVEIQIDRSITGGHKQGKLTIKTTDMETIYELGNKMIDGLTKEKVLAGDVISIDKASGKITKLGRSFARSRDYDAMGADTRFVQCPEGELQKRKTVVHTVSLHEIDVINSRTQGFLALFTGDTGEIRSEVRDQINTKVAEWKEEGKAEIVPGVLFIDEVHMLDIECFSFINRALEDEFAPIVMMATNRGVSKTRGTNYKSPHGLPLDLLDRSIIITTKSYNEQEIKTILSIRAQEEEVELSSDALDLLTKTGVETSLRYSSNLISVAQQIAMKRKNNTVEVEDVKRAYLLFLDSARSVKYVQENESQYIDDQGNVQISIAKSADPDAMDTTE

Chain of Rvb2-R350A (Q12464 whole entry R350A): as the sequence (Q12464 whole entry) above, with R350A counted along it

Binder	binding result [1]	binding result [2]
B1	binds	binds
B2	binds	binds
